15 variants from the supplement of paper PMC7125110 can be followed below.

± gives the standard error. Variants at the floor of the assay were thinned out.

B1: glmS ribozyme (parent)
chain: AUAAAAGCGCCAGAACUACAGAAAUGUAGUUGACGAGGAGGAGGUUUAUCGAAUUUUCGGCGGAUGCCUCCAAA

Holding throughout (settings): with glucosamine-6-phosphate
Variants of B1 are the subject of series [1]. In words: self-cleavage kobs at 40 uM GlcN6P; higher = faster cleavage; RNA array. In short, it runs like this: (§1)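 E. coli RNA polymerase transcribed barcoded ribozyme variants in situ on sequenced MiSeq chips, which were tracked via a hybridised Cy3 probe at 37 °C. Tiles were imaged over ~14 h after glucosamine-6-phosphate (40 μM to 10 mM) in HEPES/KCl/Mg(OAc)2 buffer was flowed in. Normalised per-tile medians were fit to one- or two-exponential decays for kobs, and kcat and KM came from weighted Michaelis–Menten fits.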

Series [2] covers variants of B1. The series is described as follows: self-cleavage kobs at 160 uM GlcN6P; higher = faster cleavage; RNA array. In short, it runs like this:
as §1

Series [3] covers variants of B1. In words: self-cleavage kobs at 640 uM GlcN6P; higher = faster cleavage; RNA array. In short, it runs like this:
as §1

Series [4] covers variants of B1. In words: self-cleavage kobs at 2500 uM GlcN6P; higher = faster cleavage; RNA array. Put shortly: as §1
Series [5] covers variants of B1. In words: self-cleavage kobs at 10000 uM GlcN6P; higher = faster cleavage; RNA array. Put shortly:
as §1

For the variant AUAAACGCGCCAGAACUACAGAAAUGUAGUUGACGAGGAGGAGGUUUAUCGAAUUCUCGGCGGAUGCCUCCAAA [A6C U56C], in series [1], the “self-cleavage kobs at 40 uM GlcN6P” value is less than 1e-05 s⁻¹. For the same variant, the “self-cleavage kobs at 160 uM GlcN6P” value in series [2] was less than 1e-05 s⁻¹.
AUAAAAGCGCCAGAACUACAGAAAUGUAGUUGACGAGGAGGAGGUUGAUCGAAUUUUCGGCGGAUGCCUCUAAA [U47G C71U]: the “self-cleavage kobs at 40 uM GlcN6P” value in series [1] amounted to 0.000224 ± 2.2e-05 s⁻¹. Besides, the “self-cleavage kobs at 160 uM GlcN6P” value in series [2] was found to be 0.000648 ± 8.2e-05 s⁻¹. In series [3], the “self-cleavage kobs at 640 uM GlcN6P” value was found to be 0.001 ± 0.00012 s⁻¹. In addition, in series [4], the “self-cleavage kobs at 2500 uM GlcN6P” value amounted to 0.00216 ± 0.00038 s⁻¹. For the same variant, the “self-cleavage kobs at 10000 uM GlcN6P” value in series [5] stood at 0.00702 ± 0.00088 s⁻¹.
AUAAAAGCGCCAAAACUACAGAAAUGUAGUUGACGAGGAGGAGGUUUAUCGAAUUUUCGGCGAAUGCCUCCAAA [G13A G63A]: the “self-cleavage kobs at 40 uM GlcN6P” value in series [1] is less than 1e-05 s⁻¹. For the same variant, the “self-cleavage kobs at 160 uM GlcN6P” value in series [2] was less than 1e-05 s⁻¹. In series [5], the “self-cleavage kobs at 10000 uM GlcN6P” value was less than 1e-05 s⁻¹.
In the case of AUAAAAGCGCCAGAUCUACAGAAAUGUACUUGACGAGGGGGAGGUUUAUCGAAUUUUCGGCGGAUGCCUCCAAA [A15U G29C A39G], the “self-cleavage kobs at 40 uM GlcN6P” value in series [1] was determined as 6.29e-05 ± 1.7e-05 s⁻¹. Also, the “self-cleavage kobs at 10000 uM GlcN6P” value in series [5] is 0.00376 ± 0.0005 s⁻¹.
For AUAAAUGCGCCAGAACUACAGAAAUGUAGUUGUCGAGGAGGAGGUUUAUCGAAUUUUCGGCGGGUGCCUCCAAA [A6U A33U A64G], in series [1], the “self-cleavage kobs at 40 uM GlcN6P” value is less than 1e-05 s⁻¹. In series [4], the “self-cleavage kobs at 2500 uM GlcN6P” value was less than 1e-05 s⁻¹.
In the case of AUAAAUGCGCCAGAACUACAGAAAUGUAGUUGACGAGGAGGAGGUUUAUCUAAUUUUCGGCGGAUGCCUCCAAA [A6U G51U], the “self-cleavage kobs at 40 uM GlcN6P” value in series [1] is less than 1e-05 s⁻¹. For the same variant, the “self-cleavage kobs at 160 uM GlcN6P” value in series [2] is less than 1e-05 s⁻¹. Besides, the “self-cleavage kobs at 640 uM GlcN6P” value in series [3] was less than 1e-05 s⁻¹. In series [4], the “self-cleavage kobs at 2500 uM GlcN6P” value was less than 1e-05 s⁻¹. The “self-cleavage kobs at 10000 uM GlcN6P” value in series [5] was less than 1e-05 s⁻¹.
On to AUAAAAGCGCCAGAAAUACAGAAAUGUAGUUGACGAGGAGGAGGUUUAUCGAAUAUUCGGCGUAUGCCUCCAAA [C16A U55A G63U], for which the “self-cleavage kobs at 40 uM GlcN6P” value in series [1] was less than 1e-05 s⁻¹.
Same read-out and setting: then AUAAAAGCGCCAGUAUUACAGAAAUGUAUUUGACGAGGAGGAGGUUUAUAGAAUUUUCGGCUGAUGCCUCCAAA [A14U C16U G29U C50A G62U], with less than 1e-05 s⁻¹.
Turning to AUAAAAGCGCCAGAACUACAGAAAUGUAGUUGACGAGGAGGAGGUUUCUCGUAUUUUCGGCGGAUGCCUACAAA [A48C A52U C70A], the “self-cleavage kobs at 40 uM GlcN6P” value in series [1] was less than 1e-05 s⁻¹.
Consider AUAAAAGCGCCAGUACUACAGAAAUGUAGUUGACGAGGAGGACGUUUAUCGAAUUUUCGGCGGAUGCCACCAAA [A14U G43C U69A], for which the “self-cleavage kobs at 40 uM GlcN6P” value in series [1] is less than 1e-05 s⁻¹. The “self-cleavage kobs at 10000 uM GlcN6P” value in series [5] is less than 1e-05 s⁻¹.
For AUAAAAGCGCCAGAACUACAGAAAUGUAGUUGACAAGGAGGAGGUUAAUCUAAUUUUCGGCGGAUGCCUCCAAA [G35A U47A G51U], the “self-cleavage kobs at 40 uM GlcN6P” value in series [1] was less than 1e-05 s⁻¹.
With AUAAAAGCGCCACAAUUACAGAAAUGUAGUUGACGAGGAGGAGGUUUAUCGAAUUUUCGGCGAAUGCCUCCAAA [G13C C16U G63A], in series [1], the “self-cleavage kobs at 40 uM GlcN6P” value was less than 1e-05 s⁻¹.
For the variant AUAAAAGCGCCAGAACUACAGAAAUGUAGUUGACGAGGAGGAUGUUUAUCGAAUUUUGGGCGGAUGCCUCCAAA [G43U C58G], in series [1], the “self-cleavage kobs at 40 uM GlcN6P” value is less than 1e-05 s⁻¹. Besides, the “self-cleavage kobs at 160 uM GlcN6P” value in series [2] was less than 1e-05 s⁻¹. Also, the “self-cleavage kobs at 640 uM GlcN6P” value in series [3] is less than 1e-05 s⁻¹. For the same variant, in series [4], the “self-cleavage kobs at 2500 uM GlcN6P” value was less than 1e-05 s⁻¹. Besides, the “self-cleavage kobs at 10000 uM GlcN6P” value in series [5] was less than 1e-05 s⁻¹.
With AUAAAGGCGCCAGAACUACAGAAAUGUAGUUGACGAGGAGGAGGUUUAUCGUAUUUUCGGCGGAUGCCUCCAAA [A6G A52U], in series [1], the “self-cleavage kobs at 40 uM GlcN6P” value was less than 1e-05 s⁻¹. For the same variant, the “self-cleavage kobs at 160 uM GlcN6P” value in series [2] is less than 1e-05 s⁻¹. For the same variant, in series [3], the “self-cleavage kobs at 640 uM GlcN6P” value was less than 1e-05 s⁻¹.
Turning to AUAAAAGCGCCAGAACUACAGAAAUGUAGUUGACGAGGAGGGGGUUUAUCGAAUUUUCGGCGGAUACCUCCAAA [A42G G66A], in series [1], the “self-cleavage kobs at 40 uM GlcN6P” value was 0.000416 ± 6.5e-05 s⁻¹. Besides, the “self-cleavage kobs at 160 uM GlcN6P” value in series [2] came out at 0.000862 ± 0.0002 s⁻¹. In addition, the “self-cleavage kobs at 640 uM GlcN6P” value in series [3] came to 0.00611 ± 0.00079 s⁻¹. The “self-cleavage kobs at 2500 uM GlcN6P” value in series [4] was 0.00984 ± 0.0018 s⁻¹. Besides, in series [5], the “self-cleavage kobs at 10000 uM GlcN6P” value worked out at 0.0267 ± 0.0068 s⁻¹.
